Measurements from patent US20070128623A1.

Biological target: GST-tagged PLD1-PX
Assay: AFM force measurement; GST-Munc-18-1 on dendron-modified tip, GST-PLD1-PX on dendron-modified Si wafer

Question: Which binding force does the source give for GST-tagged Munc-18-1 here?
Answer: 50 pN
